Measured values published in the DeepSol protein solubility set.

assay: soluble on expression in E. coli; label from the status in PepcDB or PDB records

Sequence	soluble on expression in E. coli
MSVNSIYTDREEIDSEFEDEDFEKEGIATVERAMENNHDLDTALLELNTLRMSMNVTYHEVRIATITALLRRVYHFIATQTLGPKDAVVKVFNQWGLLFKRQAFDEEEYIDLMNIIMEKIVEQSFDKPDLILFSALVSLYDNDIIEEDVIYKWWDNVSTDPRYDEVKKLTVKWVEWLQNADEESSSEEE	soluble
MGSDKIHHHHHHMRPTAIGSVCTPFVCWSCVARHGNTHVCWSCSVASVPCVTRAPVSVPGGLAAVCRTWLRRKGDLMNQGRPGVHVRVFDARVGDRVVVEPKGVGDRFMSVFVGWDAGRYLIVKMPSNLALKDHLYPDKPVVLRYLHCTGEVHGCETTIETSVAVPHRLLFLRHPESVEAVSLRKDAWVNCSVPALLRHEAGNMAGYLLDVSRGGCKVAYFEEEGLPTLAAGTEVQCSFRLPGGEQPVEVGAVVRNVAGEGGRIVCGLEFRDAPEPVVAAIGAYVDAAAFLVGTSCADRVVR	not soluble
MGSDKIHHHHHHMGNYQHPGIYVQEIAIAPNIEPVAACLPLFIGHTEKSQDANGHPLPLGKRYSVSSLAEYEEHFGKGAPETLRVLLDGKGNIVNAHSYSPFYLYAAVHQYFANGGGQCEILSVGPYSRAPDASALKAAIRALPLNAAFTLVAIPDAVSLAELPQLQRKLLQYCAQQDYCLAILDVPYCNDQTREMTVNTFRHDIGQRGLQHGAAFMPWLETAAAGISGYVDLEIKYTPGVATAWNDFHKATKLQSHLLHKQLEASPAIRFNRMLPPSGSIMALFEANARKRNIWTTPNHTPIKEIISLSATIDNIIQESLNIHPTGKSINAIRRFDNALLMWGGHTLASNDSEWRYIAHLLTRGFVQASLRRFLDQQTFEKNDEATWSLVGHQCQDFLHTLWREGALVGDKPEQAFYVRIGLNQTMSTQDIAAGRIIVHVGIALLRPAEFIILKLHKVISAPDLKPAITRPGKPVNRVKIRAKTSPINVVIRQRQQPSPPSKPLPSEPVS	not soluble
MEIAFLLNGETRRVRIEDPTQSLLELLRAEGLTGTKEGCNEGDCGACTVMIRDAAGSRAVNACLMMLPQIAGKALRTIEGIAAPDGRLHPVQQAMIDHHGSQCGFCTPGFIVSMAAAHDRDRKDYDDLLAGNLCRCTGYAPILRAAEAAAGEPPADWLQADAAFTLAQLSSGVRGQTAPAFLPETSDALADWYLAHPEATLIAGGTDVSLWVTKALRDLPEVAFLSHCKDLAQIRETPDGYGIGAGVTIAALRAFAEGPHPALAGLLRRFASEQVRQVATIGGNIANGSPIGDGPPALIAMGASLTLRRGQERRRMPLEDFFLEYRKQDRRPGEFVESVTLPKSAPGLRCYKLSKRFDQDISAVCGCLNLTLKGSKIETARIAFGGMAGVPKRAAAFEAALIGQDFREDTIAAALPLLAQDFTPLSDMRASAAYRMNAAQAMALRYVRELSGEAVAVLEVMP	soluble
MSLSIPADIASLISDKYKSAFDNGNLKFIQTETTKTKDPKTSMPYLISHMPSLIEKPERGQTPEGEDPLGKPEEELTVIPEFGGADNKAYKLLLNKFPVIPGHTLLVTNEYQHQTDALTPTDLLTAYKLLCALDNEESDKRHMVFYNSGPASGSSLDHKHLQILQMPEKFVTFQDRLCNGKEHFLPTFNTEPLQDAKVSFAHFVLPMPESEETVDEDLLAMCYISILQRALTFFQDWLNENPELKKSYNLMLTKEWICVVPRSKAFSDEMKIGFNSTGYCGMILTKNDEVFSKITEKPELINDILLECGFPNTSGQKPNEYNYEGHHHHHH	soluble
MLNIDTQFVDTIGKILSDYVSHSEITRMGEVLGYPQNDQNSGFNKHKRVHNLVSDILNRTQNTDNIKLVIEYVCNPLRYINEVSIFEQLRTAINIPLSLKGLIVSDSGQIVTTTTSKTLSEAKKRFETLDSRLKELKVHPHVLKFCTQELLQENYFHAVFEASKGVFHRIRLLTGSAMDSASLIDQCFKPGEPIVIINGNKLQTLDEQSEYKGLKNLLLAIAHLYRNSKAHKLKYYNPDNLNDALTALTLMSLAHNLLDSCSNTRRLD	soluble
MLNEFDQYLHERYLSGKARKDRWYWNNSIQRGRSTAVRENWQWKPAVAYCRYADDFVLIVKGTKAQAEAIREECRGVLEGSLKLRLNMDKTKITHVNDGFIFLGHRIIRKRSRYGEMRVVSTIPQEKARNFAASLTALLSGNYSESKVDMAEQLNRKLKGWAMFYQFVDFKAKVFSYIDRVVFWKLAHWLARKYRTGIASLMRWWCKSPKPGQSKTWVLFGKTNHGKLSGEILYRLVGQGKKLFRWRLPEGNPYLRTETRNTYTSRFTEVAMAFASI	not soluble
MAHHHHHHMPNDTLQVKLSQDSLFFPLPFTNATIDNVVQVKNMLPVVQGDPKANVISFKILSRVQNRYSVHPPVGFIGAGEHATIIFSFNPEHVKMAKNPEERELPTEATKDAIHVDFAVVDAPSVQTALAHWVPGSKETKASWEVVADASRFWKQRGQVKENSPITMRYKLRCVFATRNNVPDSLVMCMKEEGGCCKLITDGAAPLPRTRPPMTSSTQPQNTAPPEAPPHRYSESQRTTPTTRSPRSDACCTPCAIGPPGIFTMGPGAAAAASAPSASPPSSAPTQKSKTSAGITCGDITLKSIAEEVLNYKLSYRAVGVLLFLTLLCGLLDQSNLLTWLIAKQ	not soluble
EMTDLQSTHKNFLFEIEEVGIKNLTYPVLIDQYQTAGLFSFSTSLNKNEKGINMSRILESVEKHYDNGIELEFNTLHQLLRTLQDKMNQNAAGVDVSGKWFFDRYSPVTNIKAVGHADVTYGLAIENHTVTRKELTIQAKVTTLCPCSKEISEYSAHNQRGIVTVKAYLDKNNDVIDDYKDKILDAMEANASSILYPILKRPDEKRVTERAYENPRFVEDLIRLIAADLVEFDWIEGFDIECRNEESIHQHDAFARLKYRK	not soluble
MRVLISPWGDFRKWKVAKYTFSGKSLESRSTLPIMVDVIRPQETIIIVPDTLSSDFSSQESMWNSVKDEVKEFTNQLGVEDVKIIVVPGSGSFSNGSFFGNPMDAYMFLLYELAKELPLEIKEVHLDVTHGLNYLTFFTVRVVQELLGILSIRKGVVLKTYSSDPFVDGSVRHLRVNLIEEATIDPKPLSEFLEGKFLVNYSMDRVEFGEIARRLKAKELDLGRINSWIASLKHGLPLVFTTMYPQEGEVEGVLEDVVAKFLEGFNVGEGKVVRSISLGKDFGSLAKLYFQLRVLKDLKEMYNLPKDEASVEELLKISEEIFTGRIKHSTKVELDNVANRVEKTEGWVKLSEFFKNANPQVDPRNFFAHAGLEANLVEVKRNGELYLRYTKGKVRWGGKEEKAEKVIREILTSRRWF	soluble
MGHHHHHHSHSSVTIGRFQSVRYDVNLEKAKELGIPVVRRITGGGSVFHDEYGEITYSVVISEDYHPMLKNIQDSYRFLAGPLVDALKDLGIEAEFSGLNDIVVRGKKISGSAQTRRRGIILQHGTLMYATRLEI	not soluble
CSDLPEIQNGWKTTSHTELVRGARITYQCDPGYDIVGSDTLTCQWDLSWSSDPPFCEKTEE	soluble
MTVSEIRVRKINPRAKIPKRQSEGAAGYDIHSVESGRIPPNGRKSVRTGLAWDVPQSVVGLVFGRSGLALRNWIEVVETCVHPGEDKELVITLVNNGREVFEYEESSRIAQLVFVPVLSCEIDLVESLDLTERGCLGFGSTGMK	not soluble
MSLSEYQDLSQQIELIATAEESEQTHLLGEMVENGLDEGSIALILEAFPVEQRVRLWRSLPLEMHIDVLTEMRAEVRISVINALSEIELKLTLAKLDNLSLIEWEDSLPDDIISEALSLINRDELELYDQANEFADDEIGHWADRKVYTLPFSISVRRAKVLLDKYHYDSPQYIYLINKAKKFRGLVSFSDVLQAEETTQLKNLRMEELVTLNAKQTLSDAVDALEHTTLPIVPVLSDDETLIGEIDWHFALSVQREMYEARLMAGTGMDEGDDLFAPVIKSEGHHHHHH	soluble
MNHKVHHHHHHIEGRHMKVLILGAGNIGRAIAWDLKDEFDVYIGDVNNENLEKVKEFATPLKVDASNFDKLVEVMKEFELVIGALPGFLGFKSIKAAIKSKVDMVDVSFMPENPLELRDEAEKAQVTIVFDAGFAPGLSNILMGRIFQELDLKEGYIYVGGLPKDPKPPLYYKITWSPRDLIEEYTRPARVIRNGKVSKVDPLSEVKKVKIGKFEFEAFISDGLRSMLETINSERLEEWTLRWPGHLEKIKVLRELGFFKPENLDFTLRVIEPLMRYETKDFSIMKVVGKGEEGEMEFFLYDEEDSMFSSMSRVTGFTAAIISRIVAENTCTFGVIPPEILGMREDTFRRIIDELKERGISIEGT	soluble
MSLSGSITVPNYSDTNRVPGLYFALDNSKANTASVTRRVLILGQTIAGSGAPNVATLSAGYSDAVAKYGAASQCARMVSAYRAIDAQGEVWVLPLADDTSAQAATGKVTVSGTATSAGTLPLYVGDQLISVAVDTGDTAATVAANIATATAAVSGLPAGASAAEGVVTFTALNKGQSGNDILLGVALLGTAGGQAVPDGLTIALTQFSGGTADPTTLATVLALQGERVYDLIIHPYTDSGSLTALKIWLNDTAGRWSPMLQLYGHAITAYRGTYGAATSLGLAQNDQHATIMPIGDSPSDPLTWAAQIGARTAMSMRSNPALPITAVSLTVMPPTDVGRYSSEQRNSLLYDGLSTFTVDDSGTVNIERLVTTYQTNASGLPDNSYLDIETMLTAEICMQDMRSYLAGQYGGCILVADGTKISAGAKATTAKLIGKACASRYRWQTTQLWVQNADNFAANIVAENAGNGVVKLLMPYDFANQLRIIAGSVQFVKSEGHHHHHH	soluble
MGSDKIHHHHHHMIDLKQYEFWFLVGSQYLYGLETLKKVEQQASKIVDSLNDDPIFPSKIVLKPVLKSSSEITEIFEKANADPKCAGVIVWMHTFSPSKMWIRGLSINKKPLLHLHTQYNREIPWDTIDMDYMNLNQSAHGDREHGFIHARMRLPRKVVVGHWEEKEVREKIAKWMRVACAIQDGRMGQIVRFGDNMREVASTEGDKVEAQIKLGWSINTWGVGELAERVKAVPEREVEELLKEYREKYIMPEDEYSLKAIREQAKIEIALREFLKEKNAVGFTTTFEDLHDLPQLPGLAVQRLMEEGYGFGAEGDWKAAGLVRAIKVMGTSLPGGTSFMEDYTYHLTPGNELVLGAHMLEVCPTIAKEKPRIEVHPLSIGGKADPARLVFDGQEGPAVNASIVDMGNRFRLVVNKVLSVPIERKMPKLPTARVLWKPLPDFKRATTAWILAGGSHHTAFSTAIDVEYLIDWAEALEIEYVVIDENLDLEDFKKELRWNELYWGLLKR	not soluble
DIKMTQSPSSMYASLGERVTITCKASQDINSYLNWFQQKPGKSPKTLIYRTNRLVDGVPSRFSGSGSGQDYSLTISSLEYEDMGIYYCLQYDEFPYTFGSGTKLEIKRTVAAPSVFIFPPSDEQLKSGTASVVCLLNNFYPREAKVQWKVDNALQSGNSQESVTEQDSKDSTYSLSSTLTLSKADYEKHKVYACEVTHQGLSSPVTKSFNR	soluble
MSQVQFSHNPLFCIDIIKTYKPDFTPRVAFILGSGLGALADQIENAVAISYEKLPGFPVSTVHGHAGELVLGHLQGVPVVCMKGRGHFYEGRGMTIMTDAIRTFKLLGCELLFCTNAAGSLRPEVGAGSLVALKDHINTMPGTPMVGLNDDRFGERFFSLANAYDAEYRALLQKVAKEEGFPLTEGVFVSYPGPNFETAAEIRMMQIIGGDVVGMSVVPEVISARHCDLKVVAVSAITNMAEGLSDVKLSHAQTLAAAELSKQNFINLICGFLRKIA	soluble
MALRSVCRWHNGEPAVLSSYGLRVRLSRMEDQCRVLAAAVETLDDVFYVYDADGKLAYWNARLNELFGLTDGELSGMDPTEFFVADDRAAVEAAIEDVFESGQTSVEARAETTEGVVTFELSGRLLTGDDGTVQGFSGVGRDIT	not soluble
